Results as given in the RNAGym collection of RNA variant scans (doi:10.1073/pnas.2313332121).

B1: TPR t1 (parent)
chain: GACCAAUCUGCCCUCAGAGCUCGAGAACAUCUUCGGAUGCAGAGGAGGCAGGCUUCGGUGGCGCGAUAGCGCCAACGUCCUCAACCUCCAAUGCAUCCCACCACAUGAUGAUGCCUGAAGAGCCUUGGUUUUUUG

Variants of: B1
Test: polymerase ribozyme fitness, log enrichment relative to wild type (log ratio); higher = more active; in vitro selection for triplet polymerase activity
Method in brief: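 In triplicate, a single round of in vitro selection was run on each mutant library, PCR-built and transcribed, covering one subunit of a heterodimeric triplet polymerase ribozyme. Frozen incubation at −7 °C followed annealing with a biotinylated primer, partner subunit and triplets, and extended constructs were then gel-excised, streptavidin-captured and taken through RT-PCR. Fitness is the logarithm of genotype enrichment over wild-type enrichment, from inverse-variance-weighted replicate averages of Illumina-sequenced inputs and outputs. […] only genotypes with ≥10 input reads and ≥1 read per output were kept.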

Variant	polymerase ribozyme fitness (log ratio)
U54G U116A	-3.36
U54C G93C G117A	-2.18
C56A G71A U78G G128C U129A	-4.83
G57C G61U	-0.733
C56U U96C	0.246
C56A C72U C104A	-1.61
U55C A121G	1.84
C56U C72G	-0.66
C56A G61A G110U	-4.01
C56U G135A	-0.436
C56U G135C	0.59
C56G C98U G110A	-1.9
C56U G93A G110C	-5.11
U55A C62A U78C C79A U125G U133G	-3.28
U55G G63U A108G	-2.44
C56U U129C	-0.507
C56U G120C G127U	2.09
C56G G61C	-5.99
C56G G69U C124U	0.715
U55C G69C C76U C89A A121U U125G	-4.56
U54A C82U G113A	-1.2
U55A G63A C85G C88G	-2.1
U55A G57C U78C A103G C124A U125A	-4.66
G57A C76A	-0.895

Variant	polymerase ribozyme fitness (log ratio)
C56U A83C U106A A118U C123G	1.63
C56G G71A	-4.31
U54C G61C C73A G93U	-2.61
G57U C72U G110C	-4.22
C53U G107U	-4.06
C56A C86G C102A	-3.16
C56U A66C U78A	-2.84
C56G G69C	-4.54
C56G G117U	-2.83
C56U U78C	-0.427
C56G G93U	-2.19
C56G U112C	1.26
C56A	-0.243
C56U	0.0734
C56G	-0.465
U55A C73A C104A A118G G122U	-1.07
C56G A74U U81A U87A	-4.29
G57C C97U G113C	-3.16
C56G G77A	-0.468
C56G G77C	-0.126
U55G C62U C102A	-1.77
U55C C82A	0.163
C56G U87G A100C	-1.94
C53U G71U U81A C123U G135A	-0.21

Variant	polymerase ribozyme fitness (log ratio)
U54C U59C G61U U125A	-6.69
U55A C56G C89U C124A	0.651
C56U C82A G120A G128A	-0.705
U54A U92C G128A	-3.16
U55C G58A U92C	-0.821
U55C U96A U106A	-0.506
U55A C80A C86G C124G	-4.35
C56U A111G	0.705
C56A C124G	1.08
C56A C124U	1.18
U54G C56G C72A G93A C124A U125A	-2.75
C53U G71A	-0.671
C56U G69U C79A C101U	-3.71
C56A G71U U78G A105G A119U G122A	-5.65
C56U U78G U106G G110A U129A U131C	-4.97
C56G A66U A74C G122A	-6.51
C56A G122A	-0.936
C56G G57C G58A C104A	-3.33
C56U G77A	0.388
C56U G77C	-0.361
U54G A91C G113U A121C	-2.85
U55G C62A A74U C102A	-5.52
U54C C73U A83U G113U U134G	-2.89
U54C C56U U133G	0.0417

Variant	polymerase ribozyme fitness (log ratio)
C56G C98G	-4.96
U54G G57U G120A	0.132
U54C C101G	-1
C56U U81G C82A	-1.57
U54C G71A C102A C123A	-3.7
C56U A95G C101A	-1.46
C56G C89G	-3.34
C56G C73A G93C	-4.53
G57C G110A	-1.6
U55A G69C C104U C115A	-0.166
C56G G61C A95G A111U	-6.34
C56U G93U U116C	-1.7
C56U C73A	-0.837
C56G G63A C101G G122U	-5.14
C53U G110U	-1.81
C53U G110C	-3.51
C56G U81A U125A	-1.81
C56U A74C A91G	-1.72
C56G U109C	-3.23
C56A C99U C102U	-5.77
U54A C70G C88U	-3.24
U55C C56U U125A	-0.641
C56A G107C	-5.28
C56U C94U	0.204

Variant	polymerase ribozyme fitness (log ratio)
U54C C124U	1.81
C56G A74U C124U	0.777
C56U G63A	-4.43
U54G C56G A83C	-2.03
G57A C76A A105C	-4.35
C56U A90G	0.117
U54G C56G C80G A84G G117U	-6.69
C56A A83C	-0.237
C56U C97U	-0.00643
C56U G110U	-0.767
U54A G60C G117C	-3.99
C56U G61U U112C A118C	-4.53
G57C U116C	-0.186
U55C G61A	-0.329
U55A A84C	0.0901
U54G G69U G117U	-3.75
C56A C86A	-0.76
C56A G127U U129A U130C	-1.7
C56G G127A G128A	-3.93
G57A C64U U78C U87C C104U G113A	-1.61
U55A G57A G71C G113A	-2.54
C56G G127U	-1.1
C56A U78A	0.796
C56A U78C	-0.456

Variant	polymerase ribozyme fitness (log ratio)
U55G U96A	-1.38
G57C U106A U112A	1.17
G57A A66C	-2.98
C56U G57U G69U C114U C115A	-4.53
U54A C124A	-0.2
G57A C72U G127U	-2.52
C56A C94U	-0.146
C56U G57U C70A	-2.65
U55C C62G	-1.97
U54A C98G U112C	-3.86
U55A G57A U112G	-0.322
U54A U116G	-1.91
C56U C72U C80U A90C	-2.11
U54A C70G	-2.37
U54G C72A	-1.41
U54G C89A U131G	-2.74
G57U C89A	-1.5
U54A C115G	-2.09
U54C C86G C88A C101U U129C	-3.66
C56G C115U G135C	-1.67
U54A U55G G61A C80U	-0.516
U54A U106A C124A U129C	0.971
C56A C97A	-3.81
U55A G61C U96A G120C	-1.22

Variant	polymerase ribozyme fitness (log ratio)
U54G C123G	0.306
G57C U125A	-0.636
U54C G71A C85G C101U U112G G120C	-4.36
C53U U78C C124G	1.86
C56A C80U G120C C123G	-0.961
C56G C101A	-1.08
C56G A91U A111C	-2.73
G57A U106G A121C	-0.75
C56G U106A	-0.921
C56G G93A A95G G113A G120C	-3.38
C56A C115A U126C	-1.19
U54G C94A C114A	-3.33
U54C C80A U125A	-2.52
U55C C89U C115U	-3.71
C56A G69U A119G	0.438
G57U A83C G93C	-1.15
C56U C86G C104U	-0.849
C56U G107U	-4.6
C56U G107A	-4.63
C56U A95C G128C	-2.78
G57C C89G	-0.917
C56G A103U U109G	-6.5
C56A C123U C124U	1.2
